Patent US20180057604A1 (Genentech, published 2018)
Where a chain is given by its changes, count along the chain named. Names and notes keep the numbering of the source. Where two headings read alike, the source gives them in different places.

T1: cyno TfR extracellular domain (analogous construct to human TfR ecd) (cynomolgus monkey, UniProt Q5RDH6 87-760 (Pongo abelii entry))
T1 construct: also called cynoTfR ecd
T1 chain: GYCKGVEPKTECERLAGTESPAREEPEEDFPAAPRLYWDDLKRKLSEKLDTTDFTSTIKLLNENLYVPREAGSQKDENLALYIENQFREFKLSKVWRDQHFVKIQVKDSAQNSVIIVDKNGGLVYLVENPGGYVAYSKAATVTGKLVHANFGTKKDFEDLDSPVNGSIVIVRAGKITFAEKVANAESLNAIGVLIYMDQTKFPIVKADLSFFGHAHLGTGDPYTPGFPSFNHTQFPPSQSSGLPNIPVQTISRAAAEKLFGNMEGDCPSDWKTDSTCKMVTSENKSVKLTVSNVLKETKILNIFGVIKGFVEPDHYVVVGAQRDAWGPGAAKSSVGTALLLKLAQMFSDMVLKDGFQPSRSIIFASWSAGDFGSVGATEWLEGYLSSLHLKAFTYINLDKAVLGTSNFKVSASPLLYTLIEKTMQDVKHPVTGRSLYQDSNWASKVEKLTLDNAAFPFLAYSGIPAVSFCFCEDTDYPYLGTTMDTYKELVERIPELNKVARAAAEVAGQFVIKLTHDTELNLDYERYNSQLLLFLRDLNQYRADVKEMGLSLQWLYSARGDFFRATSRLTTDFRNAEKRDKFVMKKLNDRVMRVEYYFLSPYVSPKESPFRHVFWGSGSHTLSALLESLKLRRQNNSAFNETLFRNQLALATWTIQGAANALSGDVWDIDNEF

B1: F91A (antibody, V domains shown)
VH: EVQLVQSGAEVKKPGASVKVSCKASGYTFTSYWMHWVRQAPGQRLEWIGEINPTNGRTNYIEKFKSRATLTVDKSASTAYMELSSLRSEDTAVYYCARGTRAYHYWGQGTMVTVSS
VL: DIQMTQSPSSLSASVGDRVTITCRASDNLYSNLAWYQQKPGKSPKLLVYDATNLADGVPSRFSGSGSGTDYTLTISSLQPEDFATYYCQHAWGTPLTFGQGTKVEIK
notes: also called 15G11.v5 F91A (CDR-L3) IgG
B2: F91A (Fab, V domains shown)
VH: B1 VH
VL: B1 VL
notes: also called 15G11.v5 F91A (CDR-L3) Fab
B3: Hu15G11.HC32A Fab (Fab, V domains shown)
VH: B1 VH with Y32A
VL: B1 VL with A91F
notes: Fab
B4: T96A (antibody, V domains shown)
VH: B1 VH with T100A
VL: B1 VL with A91F
notes: also called 15G11.v5 T96A (CDR-H3) IgG; copies: 2 + 2
B5: W92A (antibody, V domains shown)
VH: B1 VH
VL: B1 VL with A91F, W92A
notes: also called 15G11.v5 W92A (CDR-L3) IgG; 15G11.W92A
B6: W92A (Fab, V domains shown)
VH: B1 VH
VL: B1 VL with A91F, W92A
notes: also called 15G11.v5 W92A (CDR-L3) Fab
B7: Mu7A4.Fab (Fab, V domains shown)
VH: QVQLQQSGPELVRPGVSVKISCKGSGYTFTDYAMHWVKQSHAKSLEWIGGISTYFGRTNYNQKFKGRATMTVDKSSSTAYMELARLTSEDSALYYCARGLSGNYVMDYWGQGTSVTVSS
VL: DIVLTQSPASLAVSLGQRATISCRASESVDDYGNSFMHWYQQKPGQPPKLLIYRASNLESGIPARFSGSGSRTDFTLTINPVEADDVATYYCQQSNEAPPTFGGGTKLEIR
notes: Fab; also called mouse 7A4 Fab
B8: Hu16F6.v4.Fab (Fab, V domains shown)
VH: EVQLVESGPGLVKPSETLSLTCTVSGNSITSEYAWNWIRQPPGKGLEWIGYISYSGTTSYNPSLKSRVTISRDTSKNQLSLKLSSVTAADTAVYYCARYGYGNPATRYFDVWGQGTLVTVSS
VL: DIQMTQSPSSLSASVGDRVTITCRASKSISKYLAWYQQKPGKTNKLLLYSGSTLQSGVPSRFSGSGSGTDYTLTISSLQPEDFATYYCQQHNEYPWTFGQGTKVEIK
notes: Fab
B9: Mu16F6.Fab (Fab, V domains shown)
VH: DVQLQESGPGLVKPSQSLSLTCTVTGNSITSEYAWNWIRQFPGNKLEWMGYISYSGTTSYNPSLKSRISITRDTSKNQLFLQLNSVTTEDTATYFCARYGYGNPATRYFDVWGAGTTVTVSS
VL: DVQITQSPSYLTASPGETITINCRASKSISKYLAWYQEKPGKTNKLLIYSGSTLQSGIPSRFSGSGSGTDFTLTISNLEPEDFAMYYCQQHNEYPWTFGGGTKLEIK
notes: Fab; also called mouse 16F6 Fab

Assays:
[1] = target: T2, human TfR extracellular domain with N-terminal His tag (human, UniProt P02786 89-760); assay: SPR SCK 1:1 fit, IgG
T2 construct: Biotinylated in some assays; also called huTfR; HuTfR
Description: (§1) Antibody affinities were measured using surface plasmon resonance (“SPR”) (Biacore™, GE Healthcare). Anti-His antibody (Qiagen) was coupled onto four different flow cells of a BIACORE™ CM5 sensor chip (Biacore, Inc., Piscataway, N.J.) at between 6000 and 8000 RU. Immobilization was achieved by random coupling through amino groups using a protocol provided by the manufacturer. 10×HBS-P (Biacore, Inc., Piscataway, N.J.) was diluted in water and served as the dilution and running buffer. Purified human or cyno TfR was captured, followed by a 3-fold dilution series of IgG or Fab that was injected at a flow rate of 30 ml/min using the single cycle kinetics method. Affinity constants were determined using a simple 1:1 Langmuir binding model or using a steady state model when kₒₙ or koff was beyond the detection limit. The equilibrium dissociation constant (KD) was calculated as the ratio of association rate constant (kₒₙ) and dissociation rate constant (koff).
(§2) These variants were screened as IgG by ELISA and SPR to identify positions important for binding to human and cyno TfR; the monovalent affinity of selected variants as Fab was also determined. […] Plates were washed with PBS/0.05% Tween 20 and blocked using Superblock blocking buffer in PBS (Thermo Scientific, Hudson, N.H.). Supernatants containing expressed IgG were diluted serially 1:5 and added to the plate for 1 h. […] Plates were washed with PBS/0.05% Tween 20 and 1:1000 diluted HRP-Goat-anti kappa (Southern Biotech) was added the plate and incubated for 1 h at room temperature. Plates were washed with PBS/0.05% Tween 20 and detected using TMB substrate (BioFX Laboratories, Owings Mills). Binding was also assessed by SPR, as described above.

[2] = target: T2, human TfR extracellular domain with …; assay: SPR steady state, IgG
Description: as §1, §2

[3] = target: T1, cyno TfR extracellular domain …; assay: ELISA, IgG
Description: (§3) Affinity variants were generated by making individual alanine substitutions in CDR-L3 or CDR-H3 using standard techniques. These variants were screened as IgG by ELISA and SPR to identify positions important for binding to human and cyno TfR; the monovalent affinity of selected variants as Fab was also determined. […] Plates were washed with PBS/0.05% Tween 20 and blocked using Superblock blocking buffer in PBS (Thermo Scientific, Hudson, N.H.). Supernatants containing expressed IgG were diluted serially 1:5 and added to the plate for 1 h. […] Plates were washed with PBS/0.05% Tween 20 and 1:1000 diluted HRP-Goat-anti kappa (Southern Biotech) was added the plate and incubated for 1 h at room temperature. Plates were washed with PBS/0.05% Tween 20 and detected using TMB substrate (BioFX Laboratories, Owings Mills).

[4] = target: T2, human TfR extracellular domain with …; assay: ELISA, IgG
Description: as §3

[5] = target: T2, human TfR extracellular domain with …; assay: SPR, Fab
Description: as §1, §2

[6] = target: T1, cyno TfR extracellular domain …; assay: SPR, TfR captured by anti-His, Fab injected;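 as to koff: single cycle kinetics with a Fab dilution series, fitted by a one-to-one Langmuir model or a steady state model, KD taken as koff over kon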;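 as to kon: single cycle kinetics with a Fab dilution series, fitted by a one-to-one Langmuir model or a steady state model, KD taken as koff over kon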
Description: as §1
(§4) In both cases, the SPR experiments were performed as described above.

[7] = target: T1, cyno TfR extracellular domain …; assay: SPR, TfR captured by anti-His, Fab injected;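 as to koff: single cycle kinetics with a Fab dilution series, fitted by a one-to-one Langmuir model or a steady state model, KD taken as koff over kon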
[8] = target: T2, human TfR extracellular domain with …; assay: SPR, TfR captured by anti-His, Fab injected;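 as to koff: single cycle kinetics with a Fab dilution series, fitted by a one-to-one Langmuir model or a steady state model, KD taken as koff over kon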
[9] = target: T1, cyno TfR extracellular domain …; assay: SPR, KD on cyno TfR over KD on human TfR
Description: as §1, §4

T2 sequence (P02786 89-760 G142S): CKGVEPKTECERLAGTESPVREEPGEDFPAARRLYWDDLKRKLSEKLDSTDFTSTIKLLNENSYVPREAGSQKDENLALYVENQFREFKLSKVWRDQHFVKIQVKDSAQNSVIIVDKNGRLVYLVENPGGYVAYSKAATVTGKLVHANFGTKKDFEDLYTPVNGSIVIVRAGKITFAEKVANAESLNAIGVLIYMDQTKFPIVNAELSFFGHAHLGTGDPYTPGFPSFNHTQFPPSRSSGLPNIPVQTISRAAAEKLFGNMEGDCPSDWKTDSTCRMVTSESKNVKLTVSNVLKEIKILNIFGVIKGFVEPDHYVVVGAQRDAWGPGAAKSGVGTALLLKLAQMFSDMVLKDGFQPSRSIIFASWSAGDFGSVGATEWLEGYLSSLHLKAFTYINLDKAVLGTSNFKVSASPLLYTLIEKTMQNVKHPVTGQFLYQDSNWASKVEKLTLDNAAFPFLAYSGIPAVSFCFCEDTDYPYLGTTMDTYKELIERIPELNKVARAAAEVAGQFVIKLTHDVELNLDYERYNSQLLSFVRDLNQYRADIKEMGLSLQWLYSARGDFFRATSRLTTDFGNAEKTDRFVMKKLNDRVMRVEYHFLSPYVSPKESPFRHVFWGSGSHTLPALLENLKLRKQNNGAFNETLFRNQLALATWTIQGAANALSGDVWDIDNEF

| Binder | Kd [1] | Kd [2] | EC50 [4] | koff [7] | kon [7] | koff [8] | kon [8] | Cy/hu ratio [9] | further results |
| --- | --- | --- | --- | --- | --- | --- | --- | --- | --- |
| B1 | 167 nM | 228 nM | 0.0458 µg/mL |  |  |  |  |  | EC50 [3]: 0.953 µg/mL |
| B2 |  |  |  |  |  |  |  |  | Kd [5]: 383 nM |
| B3 |  |  |  |  |  |  |  |  | Kd [6]: 48 nM |
| B4 | 173 nM | 433 nM | 0.274 µg/mL |  |  |  |  |  | EC50 [3]: 3.38 µg/mL |
| B5 | 31 nM | 123 nM | 0.0118 µg/mL |  |  |  |  |  |  |
| B6 |  |  |  |  |  |  |  |  | Kd [5]: 280 nM |
| B7 |  |  |  | 0.000845 s⁻¹ | 1.14e+06 M⁻¹ s⁻¹ | 0.000313 s⁻¹ | 1.65e+06 M⁻¹ s⁻¹ | 3.9 | Kd [7]: 0.741 nM; Kd [8]: 0.19 nM |
| B8 |  |  |  | 0.00244 s⁻¹ | 98900 M⁻¹ s⁻¹ | 0.000169 s⁻¹ | 131000 M⁻¹ s⁻¹ | 19.1 |  |
| B9 |  |  |  | 0.00137 s⁻¹ | 51100 M⁻¹ s⁻¹ | 0.00019 s⁻¹ | 60700 M⁻¹ s⁻¹ | 8.56 |  |
